# Source: patent publication US20160009772A1 (Hoffmann-La Roche, published 2016)
# Read-outs that look alike come from different tables or passages of the source.
# Tests used:
# [1] = target: T1, N-terminal His (six histadine)-tagged IRF5 (222-425) SEQ ID NO 22 (human, UniProt Q13568 222-425); assay: direct binding TR-FRET, FITC peptide and Tb anti-His antibody (FIG. 2)
# T1 construct: also called His tag IRF5(222-425); his-tagged IRF5 (222-425, lacking helix 5 and unable to homodimerize)
# Procedure: Aliquots (1.6 μl per well) of 4 μM FITC peptide solution in DMSO were added into 96-well polypropylene plates (Corning). […] The samples were incubated at room temperature for 30 min. […] Samples were incubated at 4° C. for overnight and 18 μl per well were transferred to small volume 384-well polystyrene plates (Corning) in duplicates.
# [2] = target: T2, IRF5(222-467, S430D), S430D phosphomimetic construct of IRF5 (222-467) (human, UniProt Q13568-4 222-467); assay: TR-FRET IRF5 dimerization inhibition, S430D (222-467), peptide titrated
# T2 construct: range 222-467; Used in the dimer assay in two tagged forms at once (biotin tag and His tag); S and R stand 10 residues further (S440, R363), so the construct is probably numbered on an isoform 10 residues shorter; also called mutant S430D (222-467); biotin tag IRF5(222-467, S430D)
# [3] = target: T2, IRF5(222-467, S430D), S430D …; assay: as above; remark: listed apart in the source
# Procedure: The samples were incubated at room temperature for 20 min. Seventeen microliters per well of detection solution containing 10 nM europium (Eu) conjugated streptavidin and 80 nM allophycocyanin (APC) conjugated anti-His antibody (Columbia Biosciences) in Assay Buffer (without DTT) were added. The samples were incubated at room temperature for 60 min followed by overnight incubation at 40 C and 30 ul per well were transferred to 384-well polystyrene plates (Matrix, Thermal Scientific) in duplicates. […] The data were processed in Excel XLfit and the IC50 values were calculated using a nonlinear curve-fitting algorithm (four parameter equation). The data represent an average of 3 independent experiments (each run in triplicates) and the reported errors represent standard deviation (s.d.).
# T2 sequence (Q13568 232-477 S440D limits assumed): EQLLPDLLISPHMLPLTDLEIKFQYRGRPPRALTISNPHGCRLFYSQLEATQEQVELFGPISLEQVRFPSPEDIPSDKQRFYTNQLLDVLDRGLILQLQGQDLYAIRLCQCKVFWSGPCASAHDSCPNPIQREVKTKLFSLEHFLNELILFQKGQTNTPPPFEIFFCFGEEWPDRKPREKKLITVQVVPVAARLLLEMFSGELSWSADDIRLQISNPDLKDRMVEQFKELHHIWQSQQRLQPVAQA
# T1 sequence (Q13568 other isoform, or with tags, fused parts or gaps limits assumed): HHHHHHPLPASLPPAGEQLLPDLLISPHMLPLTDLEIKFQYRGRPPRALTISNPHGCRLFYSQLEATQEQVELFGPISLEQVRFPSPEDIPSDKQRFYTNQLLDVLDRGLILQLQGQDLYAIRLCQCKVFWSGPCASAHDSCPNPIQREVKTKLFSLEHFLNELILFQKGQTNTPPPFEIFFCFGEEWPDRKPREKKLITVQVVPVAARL
IC50 [2],Binder,further results
,"Ac-YLKFIPLKRAIWLIK-NH2 (also: FITC label, position and linker not given here, Kept apart from m13) [control FITC labeled CPP designed not to bind IRF5 (SEQ ID NO: 23)]",binding result [1]: no binding (tested: 0-10.5 uM His tag IRF5(222-425))
2420 nM,Ac-IRLQISNPDLKDLMVQWFKDGGPSSGAPPPS-NH2 [Ac-IRLQISNPDLKDLMVQWFKDGGPSSGAPPPS-NH2 (SEQ ID NO: 9)],
,"Ac-YLKFIPLKRAIWLIK-NH2 [Ac-YLKFIPLKRAIWLIK-NH2 (SEQ ID NO: 23), control CPP designed not to bind IRF5]",IC50 [3]: > 75000 nM
1670 nM,Ac-PFPPLPIGEEAPKDDMVRFFKDLHQYLNVV-NH2 [Ac-PFPPLPIGEEAPKDDMVRFFKDLHQYLNVV-NH2 (SEQ ID NO: 10)],
